# Reference: patent publication US20090258001A1
# Columns and labels:
# [1] = molecular target: CD3 (CD3/TCR complex) on CD4+ and CD8+ T cells of patients (human) (UniProt P07766); assay: flow cytometry of CD4+ T cells, anti-human IgG; Example 3 Cohort 3, end of 0.1 mg infusion
# [2] = molecular target: CD3 (CD3/TCR complex) on CD4+ and CD8+ T cells of patients (human) (UniProt P07766); assay: flow cytometry of CD4+ T cells, anti-human IgG; Example 3 Cohort 3, end of 0.3 mg infusion
# [3] = molecular target: CD3 (CD3/TCR complex) on CD4+ and CD8+ T cells of patients (human) (UniProt P07766); assay: flow cytometry of CD4+ T cells, anti-human IgG; Example 4 Cohort A, end of 0.5 mg infusion
# [4] = molecular target: CD3 (CD3/TCR complex) on CD4+ and CD8+ T cells of patients (human) (UniProt P07766); assay: flow cytometry of CD4+ T cells, anti-human IgG; Example 4 Cohort B, end of 0.2 mg infusion
# [5] = molecular target: CD3 (CD3/TCR complex) on CD4+ and CD8+ T cells of patients (human) (UniProt P07766); assay: flow cytometry of CD4+ T cells, anti-human IgG; Example 4 Cohort C, end of 0.2 mg infusion
# [6] = molecular target: CD3 (CD3/TCR complex) on CD4+ and CD8+ T cells of patients (human) (UniProt P07766); assay: flow cytometry of CD4+ T cells, anti-human IgG; Example 4 Cohort B, end of 0.75 mg infusion
# [7] = molecular target: CD3 (CD3/TCR complex) on CD4+ and CD8+ T cells of patients (human) (UniProt P07766); assay: flow cytometry of CD4+ T cells, anti-human IgG; Example 4 Cohort A*, end of 0.15 mg infusion
# [8] = molecular target: CD3 (CD3/TCR complex) on CD4+ and CD8+ T cells of patients (human) (UniProt P07766); assay: flow cytometry of CD4+ T cells, free CD3 sites by biotinylated TRX4; Example 4 Cohort A, 0.3 mg
# [9] = molecular target: CD3 (CD3/TCR complex) on CD4+ and CD8+ T cells of patients (human) (UniProt P07766); assay: flow cytometry of CD4+ T cells, free CD3 sites by biotinylated TRX4; Example 4 Cohort C, 1.0 mg
# [10] = molecular target: CD3 (CD3/TCR complex) on CD4+ and CD8+ T cells of patients (human) (UniProt P07766); assay: flow cytometry of CD4+ T cells, free CD3 sites by biotinylated TRX4; Example 4 Cohort A*, 0.05 mg
# UniProt P07766, sequence (P07766 23-207, chain 1 of 3): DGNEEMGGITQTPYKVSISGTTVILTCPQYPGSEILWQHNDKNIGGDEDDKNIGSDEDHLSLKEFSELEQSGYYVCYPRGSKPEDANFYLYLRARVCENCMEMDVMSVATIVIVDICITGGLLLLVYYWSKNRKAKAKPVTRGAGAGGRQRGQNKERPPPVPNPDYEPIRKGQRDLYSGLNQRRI
# UniProt P07766, sequence (chain, as listed by the source, chain 2 of 3): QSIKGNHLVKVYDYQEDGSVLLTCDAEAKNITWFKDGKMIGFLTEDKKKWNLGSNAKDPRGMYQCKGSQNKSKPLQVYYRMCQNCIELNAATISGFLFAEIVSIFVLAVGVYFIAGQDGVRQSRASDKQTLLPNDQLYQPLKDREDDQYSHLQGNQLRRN
# UniProt P07766, sequence (chain, as listed by the source, chain 3 of 3): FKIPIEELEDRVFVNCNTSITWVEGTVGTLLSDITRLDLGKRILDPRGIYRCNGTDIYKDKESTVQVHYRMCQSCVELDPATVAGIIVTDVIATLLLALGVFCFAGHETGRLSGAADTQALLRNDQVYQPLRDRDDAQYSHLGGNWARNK
substance,measurement,setting,value
TRX4 antibody,cell-bound TRX4 (MESF of anti-human IgG),[1],100000 MESF units
same,cell-bound TRX4 (MESF of anti-human IgG),[2],300000 MESF units
same,cell-bound TRX4 (MESF of anti-human IgG),[3],450000 MESF units
same,cell-bound TRX4 (MESF of anti-human IgG),[4],400000 MESF
same,cell-bound TRX4 (MESF of anti-human IgG),[5],1.2e+06 MESF units
same,cell-bound TRX4 (MESF of anti-human IgG),[6],480000 MESF units
same,cell-bound TRX4 (MESF of anti-human IgG),[7],800000 MESF units
same,percent saturation of CD3,[8],85%
same,percent saturation of CD3,[9],97%
same,percent saturation of CD3,[10],50%
